# Measurements from patent US20250381223A1 (UTC THERAPEUTICS SHANGHAI, published 2025).
# Legend:
# [1] = molecular target: T1, BCMA-Fc recombinant protein (human, UniProt Q02223 1-54); experiment: flow cytometry; CAR-T cells stained with 5 µg/mL BCMA-Fc, anti-human IgG Fc
# T1 construct: construct not described; not shown: Fc part
# T1 sequence (looked up): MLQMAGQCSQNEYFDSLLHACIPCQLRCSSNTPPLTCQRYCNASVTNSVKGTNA
# Method: (5) Screening for functional anti-BCMA scFv in T cells: the anti-BCMA scFv was constructed into a bicistronic lentiviral CAR expression vector containing an IRES-truncated EGFR (tEGFR) expression cassette. The lentivirus was produced by transient transfection of 293T cells, followed by purification by ultracentrifugation and concentration. T cells were transduced with the CAR lentivirus to generate CAR-T cells, which were then cultured for 10 days. 10 days after lentivirus transduction, CAR-T cells were collected and stained with 5 μg/mL CD19-Fc protein (Ctrl Fc protein) or BCMA-Fc recombinant protein for 30 min at 4° C. After washing, the CAR-T cells were stained with the anti-human IgG Fc and anti-EGFR mAb. The samples were analyzed using a flow cytometer.
# [2] = molecular target: T2, CD28 (detection antigen of the BLI assay) (human, UniProt P10747 19-152, limits assumed); experiment: BLI (GATOR); antibody loaded at 30 nM, antigen 300-37.5 nM
# T2 construct: also called the antigen
# Description: The affinity kinetics of the humanized antibodies were detected using biolayer interferometry (BLI). The experimental procedures were as follows: [0533] 1. GATOR instrument was run, and the Kinetics experimental mode was selected. [0534] 2. The analysis program was run according to Table 5
# [3] = molecular target: T3, recombinant Human/Cynomolgus CD28 (N-6His) (Human/Cynomolgus, UniProt P10747 19-152); experiment: ELISA; plate coated with CD28 (N-6His) 2 µg/mL; HRP-anti-hFc
# T3 construct: Bought protein; also called antigen CD28; not shown: 6His tag at the N-terminus (N-6His)
# Method: The binding activity of the humanized antibody to the antigen CD28 was detected by the ELISA method. The experimental procedures were as follows: [0525] 1. 30 μL of recombinant Human/Cynomolgus CD28 (N-6His) (Suzhou Novoprotein Scientific Inc., C406) at a concentration of 2 μg/mL was added to each well of an ELISA plate, and the plate was incubated at 4° C. overnight. [0526] 2. The next day, the ELISA plate was washed 3 times with PBST (containing 0.05% Tween-20). [0527] 3. 250 μL of 5% skim milk powder (dissolved in PBS) was added to each well of the ELISA plate, and the plate was incubated at room temperature for 2 h. [0528] 4. The plate was washed 3 times with PBST, antibodies with different dilution ratios were added to the ELISA plate at 30 μL/well, and the plate was incubated at room temperature for 60 min. [0529] 5. The plate was washed 3 times with PBST, 30 μL of HRP-anti-hFc antibody was added to each well, and the plate was incubated at room temperature for 60 min. [0530] 6. The plate was washed 3 times with PBST, 30 μL of TMB was added to each well, and after color development at room temperature, 30 μL of 2 M H₂SO₄ was added to each well to stop the reaction. The plate was read at 450 nm.
binder,measurement,setting,value
"BCMA27 (scFv, On lentivirus-transduced T cells as CAR; also called anti-BCMA scFv BCMA27) scFv: QSALTQPPSASGSPGQSVTISCTGSRSNVGSYNDVSWYQQHPGKAPKLIIYDVDKRPAGVPDRFSGSKSGNTASLTVSGLQAEDDADYYCSSYGGTYSLFVFGTGTELTVLGGGGSGGGGSGGGGSEVQLVESGGDLVQPGGSLRLSCAASGFTFSSYGMHWVRQAPGKGLEWVAVISYDGSNKYYADSVKGRFTISRDNSKNTLYLQMNSLRAEDTAVYYCAKEEFYGDSSYGMDVWGQGTTVTVSS",binding result,[1],binds
"huVH3huVL2 (antibody, human IgG1, kappa, V domains shown) VH: QVQLQESGPGLVKPSETLSLTCTVSGFSLSDYGVHWVRQSPGKGLEWIGVIWAGGGTNYNSALKSRKTISKDNSKSQVSLKLSSVTAADTAVYYCARDKGYSYYYSMDYWGQGTTVTVSS VL: DIQLTQSPSSLSASVGDRVTITCRASESVEYYVTSLMQWYQQKPGKAPKLLIFAASNVESGVPSRFSGSGSGTNFTLTISSVQPEDFATYFCQQSRKVPYTFGGGTKLEIKR",Kd,[2],9.13 nM
same,koff,[2],0.000782 s⁻¹
same,kon,[2],85700 M⁻¹ s⁻¹
same,EC50,[3],0.00914 mg/L
"huVH5huVL2 (antibody, human IgG1, kappa, V domains shown) VH: QVQLQESGPGLVKPSETLSLTCTVSGFSISDYGVHWIRQPPGKGLEWIGVIWAGGGTNYNPSLKSRVTISVDTSKNQVSLKLSSVTAADTAVYYCARDKGYSYYYSMDYWGQGTTVTVSS VL: DIQLTQSPSSLSASVGDRVTITCRASESVEYYVTSLMQWYQQKPGKAPKLLIFAASNVESGVPSRFSGSGSGTNFTLTISSVQPEDFATYFCQQSRKVPYTFGGGTKLEIKR",Kd,[2],10.8 nM
same,koff,[2],0.000909 s⁻¹
same,kon,[2],84100 M⁻¹ s⁻¹
same,EC50,[3],0.0151 mg/L
"huVH1huVL1 (antibody, human IgG1, kappa, V domains shown, also called huVH1VL1; 9.3h11) VH: QVKLQESGPGLVKPSETLSITCTVSGFSLSDYGVHWVRQSPGKGLEWLGVIWAGGGTNYNSALMSRKTISKDNSKSQVFLKMSSLTAADTAVYYCARDKGYSYYYSMDYWGQGTTVTVSS VL: DIQLTQSPSSLSVSVGDRVTISCRASESVEYYVTSLMQWYQQKPGQAPKLLIFAASNVESGVPSRFSGSGSGTNFTLTISSVQEEDFAMYFCQQSRKVPYTFGGGTKLEIKR",Kd,[2],6.13 nM
same,koff,[2],0.000531 s⁻¹
same,kon,[2],86600 M⁻¹ s⁻¹
same,EC50,[3],0.0151 mg/L
"huVH3huVL1 (antibody, human IgG1, kappa, V domains shown) VH: QVQLQESGPGLVKPSETLSLTCTVSGFSLSDYGVHWVRQSPGKGLEWIGVIWAGGGTNYNSALKSRKTISKDNSKSQVSLKLSSVTAADTAVYYCARDKGYSYYYSMDYWGQGTTVTVSS VL: DIQLTQSPSSLSVSVGDRVTISCRASESVEYYVTSLMQWYQQKPGQAPKLLIFAASNVESGVPSRFSGSGSGTNFTLTISSVQEEDFAMYFCQQSRKVPYTFGGGTKLEIKR",Kd,[2],8.36 nM
same,koff,[2],0.000727 s⁻¹
same,kon,[2],86900 M⁻¹ s⁻¹
same,EC50,[3],0.0121 mg/L
"huVH3huVL3 (antibody, human IgG1, kappa, V domains shown) VH: QVQLQESGPGLVKPSETLSLTCTVSGFSLSDYGVHWVRQSPGKGLEWIGVIWAGGGTNYNSALKSRKTISKDNSKSQVSLKLSSVTAADTAVYYCARDKGYSYYYSMDYWGQGTTVTVSS VL: DIQLTQSPSSLSASVGDRVTITCRASESVEYYVTSLMQWYQQKPGKAPKLLIFAASNVESGVPSRFSGSGSGTDFTLTISSLQPEDFATYYCQQSRKVPYTFGGGTKLEIKR",Kd,[2],9.59 nM
same,koff,[2],0.000818 s⁻¹
same,kon,[2],85300 M⁻¹ s⁻¹
same,EC50,[3],0.00827 mg/L
"huVH1huVL2 (antibody, human IgG1, kappa, V domains shown) VH: QVKLQESGPGLVKPSETLSITCTVSGFSLSDYGVHWVRQSPGKGLEWLGVIWAGGGTNYNSALMSRKTISKDNSKSQVFLKMSSLTAADTAVYYCARDKGYSYYYSMDYWGQGTTVTVSS VL: DIQLTQSPSSLSASVGDRVTITCRASESVEYYVTSLMQWYQQKPGKAPKLLIFAASNVESGVPSRFSGSGSGTNFTLTISSVQPEDFATYFCQQSRKVPYTFGGGTKLEIKR",Kd,[2],6.54 nM
same,koff,[2],0.000582 s⁻¹
same,kon,[2],89000 M⁻¹ s⁻¹
same,EC50,[3],0.0125 mg/L
"huVH2huVL2 (antibody, human IgG1, kappa, V domains shown) VH: QVQLQESGPGLVKPSETLSITCTVSGFSLSDYGVHWVRQPPGKGLEWLGVIWAGGGTNYNSALMSRKTISKDTSKNQVSLKMSSLTAADTAVYYCARDKGYSYYYSMDYWGQGTTVTVSS VL: DIQLTQSPSSLSASVGDRVTITCRASESVEYYVTSLMQWYQQKPGKAPKLLIFAASNVESGVPSRFSGSGSGTNFTLTISSVQPEDFATYFCQQSRKVPYTFGGGTKLEIKR",Kd,[2],6.59 nM
same,koff,[2],0.000584 s⁻¹
same,kon,[2],88700 M⁻¹ s⁻¹
same,EC50,[3],0.0126 mg/L
"huVH4huVL3 (antibody, human IgG1, kappa, V domains shown) VH: QVQLQESGPGLVKPSETLSLTCTVSGFSLSDYGVHWIRQPPGKGLEWIGVIWAGGGTNYNSALKSRVTISVDTSKNQVSLKLSSVTAADTAVYYCARDKGYSYYYSMDYWGQGTTVTVSS VL: DIQLTQSPSSLSASVGDRVTITCRASESVEYYVTSLMQWYQQKPGKAPKLLIFAASNVESGVPSRFSGSGSGTDFTLTISSLQPEDFATYYCQQSRKVPYTFGGGTKLEIKR",Kd,[2],11.2 nM
same,koff,[2],0.000966 s⁻¹
same,kon,[2],86600 M⁻¹ s⁻¹
same,EC50,[3],0.0127 mg/L
"huVH2huVL3 (antibody, human IgG1, kappa, V domains shown) VH: QVQLQESGPGLVKPSETLSITCTVSGFSLSDYGVHWVRQPPGKGLEWLGVIWAGGGTNYNSALMSRKTISKDTSKNQVSLKMSSLTAADTAVYYCARDKGYSYYYSMDYWGQGTTVTVSS VL: DIQLTQSPSSLSASVGDRVTITCRASESVEYYVTSLMQWYQQKPGKAPKLLIFAASNVESGVPSRFSGSGSGTDFTLTISSLQPEDFATYYCQQSRKVPYTFGGGTKLEIKR",Kd,[2],7.44 nM
same,koff,[2],0.000635 s⁻¹
same,kon,[2],85400 M⁻¹ s⁻¹
same,EC50,[3],0.0104 mg/L
"huVH4huVL2 (antibody, human IgG1, kappa, V domains shown) VH: QVQLQESGPGLVKPSETLSLTCTVSGFSLSDYGVHWIRQPPGKGLEWIGVIWAGGGTNYNSALKSRVTISVDTSKNQVSLKLSSVTAADTAVYYCARDKGYSYYYSMDYWGQGTTVTVSS VL: DIQLTQSPSSLSASVGDRVTITCRASESVEYYVTSLMQWYQQKPGKAPKLLIFAASNVESGVPSRFSGSGSGTNFTLTISSVQPEDFATYFCQQSRKVPYTFGGGTKLEIKR",Kd,[2],10.9 nM
same,koff,[2],0.000932 s⁻¹
same,kon,[2],85400 M⁻¹ s⁻¹
same,EC50,[3],0.0126 mg/L
"BCMA23 (scFv, On lentivirus-transduced T cells as CAR; also called anti-BCMA scFv BCMA23) scFv: QSALTQPPSASGTPGQRVTISCSGSSPNIGGNSVNWYQQLPGTAPKLLMYTNNQRPSGVPDRFSGSKSGTSASLAISGLQSEDEADYYCAAWDDSLNGVVFGGGTKLTVLGGGGSGGGGSGGGGSQVQLVQSGAEVKKPGESLKISCKGSGYSFTSYWIGWVRQMPGKGLEWMGIIYPGDSDTRYSPSFQGQVTISADKSISTAYLQWSSLKASDTAMYYCARRGGALDYWGQGTLVTVSS",binding result,[1],binds
"BCMA24 (scFv, On lentivirus-transduced T cells as CAR; also called anti-BCMA scFv BCMA24) scFv: QSVLTQPPSASGTPGQRVTISCSGSSSNIGSYSVNWYQQIPGTAPKLLIYSNNQRPSGVPDRFSGSKSGTSASLAISGLQSEDEADYSCAAWDDSLNGVVFGGGTKLTVLGGGGSGGGGSGGGGSQVQLVQSGAEVKKPGSSVKVSCKASGGTFSSYAISWVRQAPGQGLEWMGGIIPIFGTANYAQKFQGRVTITADESTSTAYMELSSLRSEDTAVYYCARGSFYSSVNVWGQGTTVTVSS",binding result,[1],binds
"BCMA22 (scFv, On lentivirus-transduced T cells as CAR; also called anti-BCMA scFv BCMA22) scFv: QSALTQPASVSGSPGQSITISCTGTSSDVGGYNYVSWYQQHPGKAPKLMIYEVTNRPSGVSNRFSGSKSGNTASLTISGLQAEDEAHYYCISYTSSSTLDYVFGTGTKVTVLGGGGSGGGGSGGGGSEVQLVESGPGLVKPSGTLSLTCAVSGGSISSSNWWSWVRQPPGKGLEWIGEIYHSGSTNYNPSLKSRVTISVDKSKNQFSLKLSSVTAADTAVYYCARVGSGYSYGYGDRVLDYWGQGTLVTVSS",binding result,[1],binds
